Test results published in paper PMC2879510.

Target: U1A-Myc-His (UniProt P09012 1-102)
Test: competition

Chain of U1A-Myc-His (P09012 1-102): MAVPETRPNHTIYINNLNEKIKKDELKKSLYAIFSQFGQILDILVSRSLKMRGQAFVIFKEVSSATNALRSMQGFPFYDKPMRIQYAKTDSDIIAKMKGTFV

B1: hpIIΔDIS (U1 hpII Δ16/18A/10G) (structured_RNA)
RNA: GGCAUAUCCAGUGCACCAGGGUAUGCC
B1: binds.
